Experiment [1] concerns the target T1, EphB4 Fc (UniProt P54761 16-539).
T1 chain: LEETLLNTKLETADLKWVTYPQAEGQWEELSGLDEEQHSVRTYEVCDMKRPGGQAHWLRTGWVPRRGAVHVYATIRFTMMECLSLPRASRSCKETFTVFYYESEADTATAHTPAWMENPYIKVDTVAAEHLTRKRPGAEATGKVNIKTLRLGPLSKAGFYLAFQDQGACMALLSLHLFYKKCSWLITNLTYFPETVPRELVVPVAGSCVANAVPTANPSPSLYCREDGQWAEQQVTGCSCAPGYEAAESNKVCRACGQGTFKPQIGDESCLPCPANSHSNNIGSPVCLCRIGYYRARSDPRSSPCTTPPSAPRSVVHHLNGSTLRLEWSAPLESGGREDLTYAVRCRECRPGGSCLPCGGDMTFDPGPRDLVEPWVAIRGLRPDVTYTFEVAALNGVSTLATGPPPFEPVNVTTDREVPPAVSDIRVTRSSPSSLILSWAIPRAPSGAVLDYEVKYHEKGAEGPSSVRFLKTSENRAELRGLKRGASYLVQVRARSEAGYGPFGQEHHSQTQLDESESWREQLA
Nature of the experiment: ELISA; competition with ephrin-B2 AP. (In general: In an ELISA, binding on a coated surface is turned into a signal by an enzyme label.)

The target in experiment [2] is T2, mouse EphB4 AP (mouse, UniProt P54761 16-539).
T2 chain: T1 chain
Description: ELISA.

The target in experiment [3] is T1, EphB4 Fc. Nature of the experiment: ELISA.

4 molecules from publication PMC3237458 (2011) can be followed below.

Square brackets hold non-standard residues; d marks the D form. Ends that are not written are not given here. * marks the point of attachment. Biotin = O=C1N[C@H]2[C@H](CS[C@H]2CCCCC(=O)*)N1; Ahx = NCCCCCC(=O)O

As usually defined, the IC50 is the concentration that inhibits the measured activity by half. Read a high IC50 as a need for much substance. A word on the Kd: it is the equilibrium constant for the complex coming apart. As for TNYLFSPNGPIARAWGSGSK (Fc fusion) [TNYL-RAW fused with human Fc (TNYL-RAW-Fc)], the IC50 in experiment [1] was determined as 6.5 nM. The molecule also registered a dissociation constant (Kd) in experiment [2] of 4.7 nM.

On to TNYLFSPNGPIARAW[Ahx]K(Biotin) [biotinylated TNYL-RAW peptide], for which the dissociation constant Kd was 2.7 nM in experiment [3] and 11 nM in experiment [2].

As for TNYLFSPNGPIARAW [TNYL-RAW peptide], the 50% inhibitory concentration (IC50) in experiment [1] was determined as 13 nM.

Turning to {PEG 40 kDa branched (NHS-glutaryl)}-TNYLFSPNGPIARAW [PEGylated TNYL-RAW (PEG-TNYL-RAW)], in experiment [1], the half-inhibitory concentration (IC50) was determined as 24 nM. For the same molecule, the Kd in experiment [3] worked out at 2.9 nM.
